For experiment [1], the target named is NasT (His-tagged recombinant P. denitrificans NasT) (Paracoccus denitrificans PD1222). Put plainly: SEC; analytical Superdex 200 HR 10/30, equilibration buffer supplemented with 1 mM NO3-; fractions analysed by SDS-PAGE.
For experiment [2] the target is unchanged. Put plainly: AUC; sedimentation equilibrium of the purified complex, no NO3-; 50 mM NaHEPES, 100 mM NaCl, pH 7.5; 7.5, 12 and 16 krpm; 10 uM protein; ideal one-component fit.
The target of experiment [3] is T1, NasS-NasT (Paracoccus denitrificans, UniProt A1BAH4).
T1 construct: gene Pden_4454; co-expressed from pET-24a/nasTS in E. coli BL21(DE3); N-terminal His6-tag on NasT (tag kept), NasS untagged; NasS ~42 kDa, NasT ~22 kDa; heterotetramer ~132 kDa (two NasS, two NasT); with Response regulator NasT, ANTAR domain-containing positive regulator
T1 sequence (A1BAH4 1-390): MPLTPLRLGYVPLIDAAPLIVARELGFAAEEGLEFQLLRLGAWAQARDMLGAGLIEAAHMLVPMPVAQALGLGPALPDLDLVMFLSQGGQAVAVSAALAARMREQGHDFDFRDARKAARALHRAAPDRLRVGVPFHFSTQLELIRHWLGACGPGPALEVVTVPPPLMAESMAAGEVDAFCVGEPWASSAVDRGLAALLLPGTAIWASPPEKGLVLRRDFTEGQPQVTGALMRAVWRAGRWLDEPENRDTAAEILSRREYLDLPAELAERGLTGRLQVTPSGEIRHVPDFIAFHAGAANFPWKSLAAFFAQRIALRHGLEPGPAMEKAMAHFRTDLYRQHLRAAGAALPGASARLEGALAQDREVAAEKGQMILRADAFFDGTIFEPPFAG
T1 sequence (A1BAH5 1-196 partner): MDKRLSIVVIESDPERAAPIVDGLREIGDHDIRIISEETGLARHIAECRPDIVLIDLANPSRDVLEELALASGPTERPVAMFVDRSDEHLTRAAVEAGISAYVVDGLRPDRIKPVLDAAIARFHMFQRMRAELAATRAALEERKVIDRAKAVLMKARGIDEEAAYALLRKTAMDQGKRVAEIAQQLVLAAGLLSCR
Put plainly: intrinsic tryptophan fluorescence quench (ex […] nm, em […] nm). It counts as binding. To be noted: read-out: KD^app.

In general, stoichiometry N refers to a count of units in the complex or per binding partner. For “NasT (His-tagged recombinant P. denitrificans NasT) (natural protein)”, the stoichiometry N in experiment [1] came out at 6 monomers.

On to “NasS (recombinant P. denitrificans NasS) (natural protein)”, for which the stoichiometry N (NasS per NasT (2:2)) in experiment [2] was 1.

In the case of `O=[N+]([O-])O` [NO3^−], in experiment [3], the Kd came to 15 ± 2 µM.

As for `O=NO` [NO2^−], the Kd in experiment [3] turned out to be 94 ± 12 µM.

These data come from PMC3795266, “Nitrogen Oxyanion-dependent Dissociation of a Two-component Complex That Regulates Bacterial Nitrate Assimilation” (The Journal of Biological Chemistry, 2013).
